Assay results as given in paper PMC8487509.

Biological target: T1, LsrR (Escherichia coli DCM5 (mammary pathogenic)) (UniProt Q8XAY6)
T1 sequence: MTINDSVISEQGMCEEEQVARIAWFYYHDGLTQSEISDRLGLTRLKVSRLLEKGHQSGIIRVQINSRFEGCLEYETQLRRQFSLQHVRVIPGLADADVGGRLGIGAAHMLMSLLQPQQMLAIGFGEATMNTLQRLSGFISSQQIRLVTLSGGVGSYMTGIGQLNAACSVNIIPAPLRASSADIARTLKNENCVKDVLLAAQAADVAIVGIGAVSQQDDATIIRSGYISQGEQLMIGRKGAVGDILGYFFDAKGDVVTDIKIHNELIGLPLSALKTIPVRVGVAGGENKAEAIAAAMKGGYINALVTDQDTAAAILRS
Assay: EMSA
Settings: 5x binding buffer (4 µL) […]

TCCGCAAAAGTTCACGTTGGCTTTAGTTATTCGAGTTGAGAAACTCTCGAAACGGGCAGTGACTTCAAGGGTTAAAAGAGGTGCCGCTCCGTTTCTGTGAGCAATTATCAGTCAGAATGCTTGATAGGGATAATCGTTCATTGCTATTCTACCTATCGCCATGAACTATCGTGGCGATGGAGGATGGATA (double strand) [p-oxyR]
binding: no binding
